# Patent US20230406935A1 (F STAR THERAPEUTICS, published 2023)
# Residue numbers refer to the chain shown, from its start.
# B1: Fcab FS17-33 (Example 1, soluble Fcab with truncated hinge) (designed binder)
# chain: TCPPCPAPELLGGPSVFLFPPKPKDTLMISRTPEVTCVVVDVSHEDPEVKFNWYVDGVEVHNAKTKPREEQYNSTYRVVSVLTVLHQDWLNGKEYKCKVSNKALPAPIEKTISKAKGQPREPQVYTLPPSRDEQSGYWVSLTCLVKGFYPSDIAVEWESNGQPENNYKTTPPVLDSDGSFFLYSKLTVSNWRWQMGDFSCSVMHEALHNHYTQKSLSLSPGK
# B2: Fcab FS17-33-116 with LALA mutation (designed binder)
# chain: TCPPCPAPEAAGGPSVFLFPPKPKDTLMISRTPEVTCVVVDVSHEDPEVKFNWYVDGVEVHNAKTKPREEQYNSTYRVVSVLTVLHQDWLNGKEYKCKVSNKALPAPIEKTISKAKGQPREPQVYTLPPSRDESGYWVSLTCLVKGFYPSDIVVEWESNGEPQYWAKTTPPVLDSDGSFFLYSKLTVSNWRWQMDDFSCSVMHEALHNHYTQKSLSLSPGK
# B3: Fcab FS17-33-116 (designed binder)
# chain: B2 chain with A10L, A11L
# Columns and labels:
# [1] = target: T1, Mouse CD80 expressed on HEK 293 cells (mouse, UniProt Q00609 38-306); test: flow cytometry on HEK 293 cells
# T1 sequence: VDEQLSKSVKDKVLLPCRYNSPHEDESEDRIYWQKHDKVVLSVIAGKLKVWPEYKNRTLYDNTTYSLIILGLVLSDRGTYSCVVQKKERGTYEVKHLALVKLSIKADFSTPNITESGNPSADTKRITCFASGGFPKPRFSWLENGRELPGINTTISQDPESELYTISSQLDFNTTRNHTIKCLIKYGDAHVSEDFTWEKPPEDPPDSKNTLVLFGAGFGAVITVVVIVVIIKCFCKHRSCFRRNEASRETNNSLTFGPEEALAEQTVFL
# [2] = target: Mouse PD-L1 expressed on HEK 293 cells (mouse, UniProt Q9EP73 19-290); test: flow cytometry on HEK 293 cells
# [3] = target: T2, Human PD-1 expressed on HEK 293 cells (human, UniProt Q15116 25-288); test: flow cytometry on HEK 293 cells
# T2 construct: also called hPD-1
# [4] = target: T3, Human CD80 expressed on HEK 293 cells (human, UniProt P33681 35-288); test: flow cytometry on HEK 293 cells
# T3 construct: also called hCD80
# T3 sequence: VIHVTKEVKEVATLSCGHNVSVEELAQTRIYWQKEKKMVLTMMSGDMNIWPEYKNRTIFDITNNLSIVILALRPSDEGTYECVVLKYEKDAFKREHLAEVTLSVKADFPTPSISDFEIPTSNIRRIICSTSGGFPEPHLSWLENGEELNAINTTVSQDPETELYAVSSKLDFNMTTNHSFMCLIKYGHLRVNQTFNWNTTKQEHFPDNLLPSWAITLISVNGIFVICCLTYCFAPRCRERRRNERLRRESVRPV
# [5] = target: T4, Recombinant mouse PD-L1 with a C-terminal human IgG tag (R&D Systems, 1019-B7), biotinylated (mouse, UniProt Q9EP73 19-238); test: SPR BIAcore 3000, mouse PD-L1 Fc on streptavidin chip
# T4 construct: also called mouse PD-L1 Fc
# [6] = target: T5, Human PD-L1 expressed on cells (human, UniProt Q9NZQ7 19-290); test: cell-based or functional assay
# [7] = target: T5, Human PD-L1 expressed on cells; test: cell-based or functional assay; remark: listed apart in the source
# [8] = target: T6, Recombinant human PD-1 with a C-terminal human IgG tag (R&D Systems, 1086-PD) (human, UniProt Q15116 25-167); test: SPR Biacore, PD-1 coated on the chip, Fcab in flow
# T6 construct: also called human PD-1 Fc; biotinylated PD-1 Fc
# Text: (§1) The Fcab was then flowed over the chip at a 1000-fold concentration range. […] However, the Fcab did bind to PD-L1.
# [9] = target: T7, PD-L2 (R&D systems 1224-PL) (UniProt Q9BQ51 20-219); test: SPR Biacore, PD-L2 coated on the chip, Fcab in flow
# T7 sequence (looked up): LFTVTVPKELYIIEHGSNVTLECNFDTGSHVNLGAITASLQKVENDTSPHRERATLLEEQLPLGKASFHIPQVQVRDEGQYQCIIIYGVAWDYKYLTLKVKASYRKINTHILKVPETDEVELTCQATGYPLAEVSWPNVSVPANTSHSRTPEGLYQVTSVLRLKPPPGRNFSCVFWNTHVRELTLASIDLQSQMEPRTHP
# Text: as §1
# [10] = target: T8, Biotinylated hPD-L1-Fc-Avi (human, UniProt Q9NZQ7 19-238); test: cell-based RBA, blocking of hPD-L1-Fc-Avi binding to HEK293 hCD80 cells
# Method: (§2) The ability of the Fcabs and mock mAb² to block hPD-1/hPD-L1 and hPD-L1/hCD80 interactions was tested in cell-based Receptor Binding Assays (RBA). […] The mix was incubated for another hour with HEK293 cells overexpressing either hPD-1 or hCD80.
# [11] = target: T8, Biotinylated hPD-L1-Fc-Avi; test: cell-based RBA, blocking of hPD-L1-Fc-Avi binding to HEK293 hPD-1 cells
# Method: as §2
# [12] = target: T9, Monomeric His-tagged human PD-L1 (Acro biosystems PD1-H5229) (human, UniProt Q9NZQ7 19-238); test: SPR Biacore, captured on protein A, monomeric PD-L1-his in flow, 1:1 fit
# T9 construct: also called hPD-L1-his; PD-L1-his
# Method: The monomeric PD-L1-his human antigen was flowed over the chip in titrating concentrations at a high flow rate to minimise mass transport limitations. The KDS were measured using a 1:1 fitting analysis with no refractive index correction and Rₘₐₓ set to local.
# [13] = target: T5, Human PD-L1 expressed on cells; test: flow cytometry, HEK293 cells overexpressing the target, anti-human Fc 488
# Method: (§3) Cell binding assays were performed by incubating Fcabs or mAb² proteins with either control HEK293 cells or HEK293 cells overexpressing hPD-L1 or cynomolgus PD-L1 cells for 1 hour at 4° C. Fcab/mAb binding was subsequently detected using an anti-human Fc 488 detection antibody. Fluorescent signal intensities were measured using a FACS canto.
# [14] = target: T10, Cynomolgus PD-L1 expressed on HEK 293 cells (cynomolgus, UniProt Q9NZQ7 19-290 (human entry)); test: as above
# T10 construct: also called cell-expressed cynomolgus PD-L1
# Method: as §3
# [15] = target: the molecule itself; test: analytical ultracentrifugation, self-association of the Fcab (monomer and dimer peaks)
# Method: To address this, the molecules were analysed via analytical ultracentrifugation using a Beckman Optima XL-1 instrument.
# These domains were then purified using protein A to remove Fc domains, anti-his to remove enzymes and finally subjected to SEC to purify the monomeric fraction.
# [16] = target: T9, Monomeric His-tagged human PD-L1 (Acro …); test: SPR Biacore T200, Fcab captured on protein A chip, monomeric antigen in flow, 1:1 fit
# [17] = target: T11, Monomeric cynomolgus PD-L1 (Acro Biosciences PD1-C52H4) (cynomolgus, UniProt Q9NZQ7 19-238 (human entry)); test: as above
# T11 construct: also called cynomolgus monomeric PD-L1
# T11 sequence (Q9NZQ7 other isoform, or with tags, fused parts or gaps limits assumed): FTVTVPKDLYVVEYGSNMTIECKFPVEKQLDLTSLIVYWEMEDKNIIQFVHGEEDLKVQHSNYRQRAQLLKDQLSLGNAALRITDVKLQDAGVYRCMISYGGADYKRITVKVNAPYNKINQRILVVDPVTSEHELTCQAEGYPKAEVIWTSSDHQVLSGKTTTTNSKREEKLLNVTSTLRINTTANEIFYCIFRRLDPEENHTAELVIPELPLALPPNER
# T5 sequence (Q9NZQ7 19-290 limits assumed): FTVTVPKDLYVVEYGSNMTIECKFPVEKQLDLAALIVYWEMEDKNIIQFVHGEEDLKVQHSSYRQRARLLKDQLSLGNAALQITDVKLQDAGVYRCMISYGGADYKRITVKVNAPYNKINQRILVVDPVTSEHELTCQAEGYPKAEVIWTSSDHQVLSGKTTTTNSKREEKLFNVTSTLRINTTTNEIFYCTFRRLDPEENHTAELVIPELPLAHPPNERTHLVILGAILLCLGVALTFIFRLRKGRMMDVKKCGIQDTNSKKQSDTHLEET
# T9 sequence (Q9NZQ7 19-238 limits assumed): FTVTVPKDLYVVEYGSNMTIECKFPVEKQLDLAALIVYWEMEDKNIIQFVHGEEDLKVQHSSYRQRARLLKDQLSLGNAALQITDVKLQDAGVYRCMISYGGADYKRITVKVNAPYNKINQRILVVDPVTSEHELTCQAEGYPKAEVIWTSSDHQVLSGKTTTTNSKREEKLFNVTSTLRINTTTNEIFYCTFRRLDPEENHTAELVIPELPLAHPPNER
# T8 sequence (Q9NZQ7 19-238 limits assumed): as above
# T10 sequence (Q9NZQ7 other isoform, or with tags, fused parts or gaps limits assumed): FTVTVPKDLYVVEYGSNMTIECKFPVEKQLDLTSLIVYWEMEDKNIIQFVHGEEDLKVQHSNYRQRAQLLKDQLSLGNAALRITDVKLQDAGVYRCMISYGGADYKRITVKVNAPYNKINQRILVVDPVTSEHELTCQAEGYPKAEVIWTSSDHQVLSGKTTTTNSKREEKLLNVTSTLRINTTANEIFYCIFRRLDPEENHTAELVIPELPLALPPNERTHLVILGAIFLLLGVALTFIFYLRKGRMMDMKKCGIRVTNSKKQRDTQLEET
# T4 sequence (Q9EP73 19-238 limits assumed): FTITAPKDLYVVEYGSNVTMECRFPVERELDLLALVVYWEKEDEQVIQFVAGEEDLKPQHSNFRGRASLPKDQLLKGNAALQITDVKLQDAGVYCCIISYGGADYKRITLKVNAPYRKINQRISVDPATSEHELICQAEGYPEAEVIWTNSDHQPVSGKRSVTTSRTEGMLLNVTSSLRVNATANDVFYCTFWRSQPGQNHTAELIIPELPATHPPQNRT
# T6 sequence (Q15116 25-167 limits assumed): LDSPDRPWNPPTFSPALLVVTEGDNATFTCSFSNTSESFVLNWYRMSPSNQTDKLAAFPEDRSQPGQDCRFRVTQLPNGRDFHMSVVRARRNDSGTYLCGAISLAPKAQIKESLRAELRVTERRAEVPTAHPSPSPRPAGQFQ
# Chain of Mouse PD-L1 expressed on HEK 293 cells (Q9EP73 19-290 limits assumed): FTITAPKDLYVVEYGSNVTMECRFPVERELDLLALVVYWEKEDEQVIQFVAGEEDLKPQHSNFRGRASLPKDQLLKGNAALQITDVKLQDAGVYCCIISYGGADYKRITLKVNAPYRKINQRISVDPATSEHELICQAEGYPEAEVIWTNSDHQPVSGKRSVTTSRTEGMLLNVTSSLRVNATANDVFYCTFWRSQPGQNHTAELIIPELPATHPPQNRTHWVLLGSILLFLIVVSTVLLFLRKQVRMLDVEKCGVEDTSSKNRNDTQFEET
# T2 sequence (Q15116 25-288 limits assumed): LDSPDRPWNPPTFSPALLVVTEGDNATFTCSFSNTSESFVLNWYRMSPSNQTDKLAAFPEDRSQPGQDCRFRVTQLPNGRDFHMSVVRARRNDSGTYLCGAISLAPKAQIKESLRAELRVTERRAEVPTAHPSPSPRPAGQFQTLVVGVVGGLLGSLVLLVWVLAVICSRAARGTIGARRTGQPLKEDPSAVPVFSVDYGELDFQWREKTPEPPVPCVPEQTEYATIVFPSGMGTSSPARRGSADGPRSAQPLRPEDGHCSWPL
binder,measurement,setting,value
B1,binding result,[1],no binding (tested: 1 µM)
same,binding result,[2],no binding (tested: 1 µM)
same,binding result,[3],no binding (tested: 1 µM)
same,binding result,[4],no binding (tested: 1 µM)
same,binding result,[5],no binding
B2,DO11.10 T cell activity assay EC50,[6],0.28 nM
same,DO11.10 T cell activation assay EC50,[7],0.28 nM
B3,binding result,[8],no binding
same,binding result,[9],no binding
same,EC50,[10],8.4 nM
same,EC50,[11],9.5 nM
same,Kd,[12],0.49 nM
same,koff,[12],0.00044 s⁻¹
same,kon,[12],1.5e+06 M⁻¹ s⁻¹
same,Kd,[13],1.68 nM
same,Kd,[14],0.665 nM
same,Kd,[15],~2000 nM
same,Kd,[16],0.33 nM
same,Kd,[17],0.42 nM
